The conditions of data set [1]: in vivo; cited from earlier work.
In data set [2] the test system is influenza virus subtype A mice-lung adaptive strain FM1. As to conditions: mouse, in vivo.
In data set [3] the test system is mouse lung cancer LL2 cell. The data set is described as follows: LL2 lung cancer tumor-bearing mouse model. The class given is in vivo. As to conditions: cisplatin 5 mg/kg, tail vein injection once a week. An excerpt: The tumor cells in this model grew rapidly, with tumor volume of 2201.9 mm^3±68.01 mm^3 on the 14th day after the inoculation and the experiment was over. […] As explanation, the cisplatin group is more likely to show efficacy in this model with very rapid cell division.

Consider “polyinosinic-polycytidylic acid with poly-L-lysine and carboxymethyl cellulose [PICLC]”, for which, in data set [1], the fever is recorded as 100%, the hypotension is given as 50% and the myalgia is listed as 50%.

In the case of `NC(=O)c1ncn([C@@H]2O[C@H](CO)[C@@H](O)[C@H]2O)n1` [Ribavirin], the “X^2” value in data set [2] was determined as 1.64.

For the compound `N.N.[Cl][Pt][Cl]` [cisplatin], in data set [3], the “T/Cb (%)” value was determined as 28.9% and the “TV at day 14” value is listed as 637.79 ± 62.87 mm^3.
